Experimental data from publication PMC6538622 (Scientific Reports, 2019).

Biological target: the molecule itself
Test: SEC-SAXS; 5-10 mg/ml protein in 10 mM DTT, 10 mM MgCl2, 0.5 M NaCl, 20 mM Tris pH 8; KW403-4F size-exclusion column, B21 beamline (Diamond Light Source); molecular mass from I(0)

B1: Escherichia coli RNase E N-terminal catalytic domain (domain or fragment)
chain: not shown
notes: also called EcRNase E NTD; E. coli RNase E NTD
  stoichiometry N: 4
